Experimental data from patent publication US20060246004A1 (Genentech, published 2006).
Blank lines part the entries; values can stand above or below the molecule they belong to.

Assays:
human FcRn (human) [1] = biological target: human FcRn (human) (UniProt P55899); test: BIAcore equilibrium analysis, FcRn immobilised on CM5 chip, pH 6.0
human FcRn (human) [2] = biological target: human FcRn (human) (UniProt P55899); test: BIAcore, FcRn immobilised, pH 6.0
rat FcRn (rat) = rat FcRn (rat) (UniProt P13599); test: BIAcore, FcRn immobilised
Sequence of rat FcRn (rat) (P13599 23-298 limits assumed): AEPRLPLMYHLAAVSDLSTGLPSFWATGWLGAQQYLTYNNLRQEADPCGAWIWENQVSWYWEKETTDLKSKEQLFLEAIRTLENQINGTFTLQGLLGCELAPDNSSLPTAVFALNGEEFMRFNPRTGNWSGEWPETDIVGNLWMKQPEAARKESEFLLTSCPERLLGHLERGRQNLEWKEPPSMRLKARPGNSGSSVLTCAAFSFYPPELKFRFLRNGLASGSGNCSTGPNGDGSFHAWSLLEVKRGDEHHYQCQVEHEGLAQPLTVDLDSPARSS

[3] = biological target: T1, human CD20 on WIL2-S cells (human, UniProt P11836 1-297); test: cell-based ELISA, WIL2-S cells; conc. 2H7.v16 / conc. variant
T1 construct: whole, on cells; also called CD20 antigen; hCD20
T1 sequence (looked up): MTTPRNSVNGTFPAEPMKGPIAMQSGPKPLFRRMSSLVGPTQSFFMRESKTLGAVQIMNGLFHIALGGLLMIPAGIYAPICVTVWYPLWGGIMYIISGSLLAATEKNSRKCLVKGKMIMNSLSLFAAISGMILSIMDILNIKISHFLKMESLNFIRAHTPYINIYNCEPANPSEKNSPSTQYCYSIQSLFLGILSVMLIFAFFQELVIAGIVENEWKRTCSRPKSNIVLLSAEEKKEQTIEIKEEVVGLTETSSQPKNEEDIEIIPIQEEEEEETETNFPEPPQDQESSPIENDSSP
Description: To measure relative binding affinities to the CD20 antigen, a cell-based ELISA assay was developed. […] The cells were washed with PBS containing 1% FBS (assay buffer) and seeded at 250-300,000 cell/well in 96-well round bottom plates (Nunc, Roskilde, Denmark). […] The plates were buried in ice and incubated for 45 min. To remove the unbound antibody, 0.1 mL assay buffer were added to the wells. Plates were centrifuged and supernatants were removed. Cells were washed two more times with 0.2 mL assay buffer. Antibody bound to the plates was detected by adding peroxidase conjugated goat anti-human Fc antibody (Jackson ImmunoResearch, West Grove, Pa.) to the plates. After a 45 min incubation, cells were washed as described before. TMB substrate (3,3′,5,5′-tetramethyl benzidine; Kirkegaard & Perry Laboratories, Gaithersburg, Md.) was added to the plates. The reaction was stopped by adding 1 M phosphoric acid. Titration curves were fit with a four-parameter nonlinear regression curve-fitting program (KaleidaGraph, Synergy software, Reading, Pa.). The absorbance at the midpoint of the titration curve (mid-OD) and its corresponding concentration of the standard were determined. Then the concentration of each variant at this mid-OD was determined, and the concentration of the standard was divided by that of each variant.

[4] = biological target: T1, human CD20 on WIL2-S cells; test: competitive Scatchard analysis, WIL2-S cells; labelled competitor 125I-2H7.v138; ± standard error of fit
Description: (§1) All dilutions were performed in binding assay buffer (DMEM media containing 0.5% bovine serum albumin, 25 mM HEPES pH 7.2, and 0.01% sodium azide). […] Serial dilutions (0.05 mL) of unlabelled antibody were added and mixed. 30,000 WIL2-S cells in a volume of 0.05 mL was added to each well. The plates were sealed and incubated at room temperature for 24 h, then centrifuged for 15 min at 2,500 RPM. The supernatant was then aspirated and the cell pellets were washed and centrifuged. The supernatant was again aspirated, and the pellets were dissolved in 1N NaOH and transferred to tubes for gamma counting.

[5] = biological target: T1, human CD20 on WIL2-S cells; test: competitive Scatchard analysis, WIL2-S cells; labelled 125I-2H7.v511; ± standard error of fit
Description: as §1

soluble CD20 (Genentech) = biological target: T2, soluble CD20 (Genentech) (UniProt P11836 1-297, limits assumed); test: ELISA on plate-coated soluble CD20, bound IgG detected with HRP anti-human Fab, OD450
T2 construct: Coated on ELISA plates; also called solubilized CD20
T2 sequence (looked up): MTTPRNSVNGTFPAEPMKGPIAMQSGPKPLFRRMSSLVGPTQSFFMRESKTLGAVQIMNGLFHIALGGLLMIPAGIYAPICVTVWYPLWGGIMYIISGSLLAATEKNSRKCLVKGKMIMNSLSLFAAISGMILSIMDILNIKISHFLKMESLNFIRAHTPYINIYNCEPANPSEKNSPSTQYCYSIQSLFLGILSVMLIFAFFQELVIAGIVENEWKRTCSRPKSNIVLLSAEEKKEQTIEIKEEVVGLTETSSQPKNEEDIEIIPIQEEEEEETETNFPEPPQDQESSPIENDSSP
Description: As an additional comparison of the binding activity of 2H7 variants, an ELISA was performed with solubilized CD20.
Serial dilutions of samples in 0.5% BSA were incubated on the plates for 2 h. After washing, bound antibodies were detected with HRP-conjugated anti-human Fab antibody (Goat anti-human Ig, Fab′2-HRP conjugate, from NB) using 3,3′,5,5′-tetramethyl benzidine (Kirkegaard and Perry Laboratories, Gaithersburg, Md.) as substrate. Absorbance was read at 450 nm. Titration curves were fit with a four-parameter nonlinear regression curve-fitting program (KaleidaGraph; Synergy Software, Reading, Pa.). Concentrations of antibody variants corresponding to the midpoint absorbance of the titration curve of the standard were calculated.

Kd (human FcRn (human) [1]): 700 nM
Molecule: parental hingeless Fc (wild-type)

fold increase in affinity over wild-type Fc (human FcRn (human) [2]): 2.7 fold
Molecule: soluble Fc variant N434A

fold increase in affinity over wild-type Fc (human FcRn (human) [2]): 9 fold
Molecule: soluble Fc variant N434F

Continued, molecule first:

Molecule: soluble Fc variant N434A+E380A+T307A
fold increase in affinity over wild-type Fc (human FcRn (human) [2]): 14 fold

Molecule: soluble Fc variant N434W
Kd (human FcRn (human) [1]): 4 nM | fold better binding relative to wild-type Fc (rat FcRn (rat)): 10 fold | fold increase in affinity over wild-type Fc (human FcRn (human) [2]): 170 fold

B1: humanized 2H7.v166 (antibody, human IgG1, kappa, V domains shown)
VH: EVQLVESGGGLVQPGGSLRLSCAASGYTFTSYNMHWVRQAPGKGLEWVGAIYPGNGDTSYNQKFKGRFTISVDKSKNTLYLQMNSLRAEDTAVYYCARVVYYGGDWYFDVWGQGTLVTVSS
VL: DIQMTQSPSSLSASVGDRVTITCRASSSVSYMHWYQQKPGKAPKPLIYAPSNLASGVPSRFSGSGSGTDFTLTISSLQPEDFATYYCQQWSFNPPTFGQGTKVEIKR
notes: IgG1; changes vs v16
Relative binding [3]: 0.99 ratio

B2: humanized 2H7.v511 (antibody, human IgG1, kappa)
heavy: EVQLVESGGGLVQPGGSLRLSCAASGYTFTSYNMHWVRQAPGKGLEWVGAIYPGNGATSYNQKFKGRFTISVDKSKNTLYLQMNSLRAEDTAVYYCARVVYYSYRYWYFDVWGQGTLVTVSSASTKGPSVFPLAPSSKSTSGGTAALGCLVKDYFPEPVTVSWNSGALTSGVHTFPAVLQSSGLYSLSSVVTVPSSSLGTQTYICNVNHKPSNTKVDKKVEPKSCDKTHTCPPCPAPELLGGPSVFLFPPKPKDTLMISRTPEVTCVVVDVSHEDPEVKFNWYVDGVEVHNAKTKPREEQYNATYRVVSVLTVLHQDWLNGKEYKCKVSNAALPAPIAATISKAKGQPREPQVYTLPPSREEMTKNQVSLTCLVKGFYPSDIAVEWESNGQPENNYKTTPPVLDSDGSFFLYSKLTVDKSRWQQGNVFSCSVMHEALHNHYTQKSLSLSPGK
light: DIQMTQSPSSLSASVGDRVTITCRASSSVSYLHWYQQKPGKAPKPLIYAPSNLASGVPSRFSGSGSGTDFTLTISSLQPEDFATYYCQQWAFNPPTFGQGTKVEIKRTVAAPSVFIFPPSDEQLKSGTASVVCLLNNFYPREAKVQWKVDNALQSGNSQESVTEQDSKDSTYSLSSTLTLSKADYEKHKVYACEVTHQGLSSPVTKSFNRGEC
notes: Full-length IgG1; VH D56A, N100Y, S100aR; VL M32L, S92A; Fc S298A, K326A, E333A, K334A vs v16; also called hu2H7.v511
Kd [4]: 0.11 nM | Kd [5]: 0.45 nM | EC50 (read off the curve) (soluble CD20 (Genentech)): ~0.02 µg/mL
